US20230192815A1
Values belong to the molecule of their own block, whether it stands above or below them.

Assays:
[1] = target: Canine parvovirus CPV-2c (TS02 strain), purified virus (canine parvovirus CPV-2c, TS02 strain); experiment: indirect ELISA, purified CPV coated, serum dilution 1:1000; control of the third immunization serum
[2] = target: Canine parvovirus CPV-2c (TS02 strain), purified virus (canine parvovirus CPV-2c, TS02 strain); experiment: indirect ELISA, purified CPV coated, serum dilution 1:1000; control of the fourth immunization serum
[3] = target: Canine parvovirus CPV-2c (TS02 strain), purified virus (canine parvovirus CPV-2c, TS02 strain); experiment: indirect ELISA, purified CPV coated, serum dilution printed 1:1250000 (text: 125,000 times); control of the third immunization serum
[4] = target: Canine parvovirus CPV-2c (TS02 strain), purified virus (canine parvovirus CPV-2c, TS02 strain); experiment: indirect ELISA, purified CPV coated, serum dilution 1:25000; control of the third immunization serum
[5] = target: Canine parvovirus CPV-2c (TS02 strain), purified virus (canine parvovirus CPV-2c, TS02 strain); experiment: indirect ELISA, purified CPV coated, serum dilution printed 1:1250000 (text: 125,000 times); control of the fourth immunization serum
[6] = target: Canine parvovirus CPV-2c (TS02 strain), purified virus (canine parvovirus CPV-2c, TS02 strain); experiment: indirect ELISA, purified CPV coated, serum dilution 1:5000; control of the third immunization serum
[7] = target: Canine parvovirus CPV-2c (TS02 strain), purified virus (canine parvovirus CPV-2c, TS02 strain); experiment: indirect ELISA, purified CPV coated, serum dilution 1:25000; control of the fourth immunization serum
[8] = target: Canine parvovirus CPV-2c (TS02 strain), purified virus (canine parvovirus CPV-2c, TS02 strain); experiment: indirect ELISA, purified CPV coated, serum dilution 1:5000; control of the fourth immunization serum
[9] = target: Canine parvovirus CPV-2c (TS02 strain), purified virus (canine parvovirus CPV-2c, TS02 strain); experiment: indirect ELISA, purified CPV coated, nanobody dilution 1:100, anti-His-HRP
[10] = target: Canine parvovirus CPV-2c (TS02 strain), purified virus (canine parvovirus CPV-2c, TS02 strain); experiment: indirect ELISA, purified CPV coated, nanobody dilution 1:10, anti-His-HRP
[11] = target: Canine parvovirus CPV-2c (TS02 strain), purified virus (canine parvovirus CPV-2c, TS02 strain); experiment: cell-based or functional assay
[12] = target: Canine parvovirus CPV-2c (TS02 strain), purified virus (canine parvovirus CPV-2c, TS02 strain); experiment: indirect ELISA, purified CPV coated, nanobody dilution 1:1000, anti-His-HRP
[13] = target: Canine parvovirus CPV-2c (TS02 strain), purified virus (canine parvovirus CPV-2c, TS02 strain); experiment: indirect ELISA, purified CPV coated, nanobody dilution 1:10000, anti-His-HRP

Molecule: Negative serum of non-immunized alpaca
- mean OD450 nm [1]: 0.158 OD450 nm
- mean OD450 nm [2]: 0.371 OD450 nm
- mean OD450 nm [3]: 0.044 OD450 nm
- mean OD450 nm [4]: 0.048 OD450 nm
- mean OD450 nm [5]: 0.067 OD450 nm
- mean OD450 nm [6]: 0.071 OD450 nm
- mean OD450 nm [7]: 0.083 OD450 nm
- mean OD450 nm [8]: 0.16 OD450 nm

- mean OD450 nm [9]: 2.46 OD450 nm
- mean OD450 nm [10]: 2.56 OD450 nm
- neutralization titer (CPV neutralization assay, CPE on CRFK cells) (titer (1:x dilution)) [11]: < 10
- mean OD450 nm [12]: 0.28 OD450 nm
- mean OD450 nm [13]: 0.1 OD450 nm
B1: CPV nanobody CPV-VHH-H1 (VHH)
VHH: QVQLVESGGGLAQPGGSLRLSCAASGAIDSISAMRWFRQPPGKQRAVVASITSDGVTTYADSVKGRFTISRDNAENTLYLQMNSLKTEDTGVYYCYAALKGYSSGVVAASWGQGTQVTVSG
